Data taken from article PMC5963871, “Regulation and function of H3K36 di-methylation by the trithorax-group protein complex AMC” (Development (Cambridge, England), 2018).

T1: Drosophila Ash1_(XL-SET) (Ash1_(1275-1522)) (Drosophila, UniProt Q9VW15 1275-1522)
T1 sequence (looked up): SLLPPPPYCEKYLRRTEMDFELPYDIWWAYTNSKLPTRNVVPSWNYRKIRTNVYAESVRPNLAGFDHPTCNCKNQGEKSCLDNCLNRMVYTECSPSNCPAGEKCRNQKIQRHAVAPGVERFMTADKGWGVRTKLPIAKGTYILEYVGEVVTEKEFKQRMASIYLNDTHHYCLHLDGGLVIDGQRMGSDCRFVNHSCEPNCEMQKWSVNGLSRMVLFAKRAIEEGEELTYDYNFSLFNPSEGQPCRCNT


What was measured:
[1] = target: human ASH1L_(XL-SET) (ASH1L_(2035-2288)) (human, UniProt Q9NR48 2035-2288); experiment: cell-based or functional assay
[2] = target: T1, Drosophila Ash1_(XL-SET) …; experiment: cell-based or functional assay

HMTase activity on recombinant oligonucleosome arrays (methyl-3H incorporation into histone H3, fluorography): ASH1L_(XL-SET):MRG15MRG complex compared with ASH1L_(XL-SET) alone [1] [fold]	HMTase activity on recombinant oligonucleosome arrays (methyl-3H incorporation into histone H3, fluorography): Ash1_(XL-SET):MRG15 complex compared with Ash1_(XL-SET) alone [2] [fold]	Binder
~7	–	MRG domain of human MRG15 (MRG15_(151-362), MRG15MRG) (domain or fragment) KNKQKTPGNGDGGSTSETPQPPRKKRARVDPTVENEETFMNRVEVKVKIPEELKPWLVDDWDLITRQKQLFYLPAKKNVDSILEDYANYKKSRGNTDNKEYAVNEVVAGIKEYFNVMLGTQLLYKFERPQYAEILADHPDAPMSQVYGAPHLLRLFVRIGAMLAYTPLDEKSLALLLNYLHDFLKYLAKNSATLFSASDYEVAPPEYHRKAV
–	~30	Drosophila full-length MRG15 (E. coli) (natural protein, UniProt Q9Y0I1 1-424, looked up) MGEVKPAKVENYSTGTDANTLFVDGERVLCFHGPLIYEAKVLKTKPDATPVEYYIHYAGWSKNWDEWVPENRVLKYNDDNVKRRQELARQCGERSKKDNKKGSAKAKKMEQMRNESRASTPSKDSNTSQSTASSTPTTSAGPGSKSEAGSTGTTTTNSTANSTTSRAHRKSTQSTPSTARPGTPSDKKEDPAAAETTEEEGPVAPKKKRMSEQRPSLTGSDVAEKPLPPTTTPSTPTTEPAPCVESEEAYAAKVEVKIKIPDELKHYLTDDWYAVVREHKLLELPAKVTVQQISEQYLAHKKSVKSTSASKEVAINDVLDGIVEYFNVMLGSQLLYKFERTQYADVMQKHPDTPLSELYGSFHLLRLFVRLGSMLSYSALDQQSMQNLLTHVQDFLKFLVKNSSIFFSMSNFINVDPEYVRNAQ
